{"source": "paper PMC4070910", "about": "“Cathepsin S Signals via PAR2 and Generates a Novel Tethered Ligand Receptor Agonist” (PLoS ONE, 2014)", "molecules": {"B1": {"name": "cathepsin S: Recombinant human cathepsin S, cysteine protease, expressed in E.coli, refolded and activated (protein, UniProt P25774 115-331, looked up)", "Cathepsin S": "LPDSVDWREKGCVTEVKYQGSCGACWAFSAVGALEAQLKLKTGKLVSLSAQNLVDCSTEKYGNKGCNGGFMTTAFQYIIDNKGIDSDASYPYKAMDQKCQYDSKYRAATCSKYTELPYGREDVLKEAVANKGPVSVGVDARHPSFFLYRSGVYYEPSCTQNVNHGVLVVGYGDLNGKEYWLVKNSWGHNFGEEGYIRMARNKGNHCGIASFPSYPEI"}}, "key": {"[1]": {"system": "HeLa cells transfected with salmon sperm DNA", "test": "Fura-2 calcium imaging in HeLa cells transfected with salmon sperm DNA (control)", "assay_type": "cell-based", "conditions": "HeLa cells transfected with salmon sperm DNA alone", "experimental": "Human PAR2 cDNA was cloned as an Xho I-Hind III fragment (1206 bp) into pcDNA3.1(−). 10 µg of DNA were diluted into 0.5 ml of DMEM and mixed with 0.5 ml of DMEM containing 10 µl of Lipofectamine 2000 transfection reagent and incubated at room temperature for 20 minutes. HeLa cells were grown to confluence, trypsinized and 1×10^6 cells were pelleted in a 15 ml tube by centrifugation at 1000 rpm for 5 minutes. The DMEM-Lipofectamine 2000-DNA mixture (1 ml) was added to the cell pellet, resuspended gently and incubated at room temperature for 20 minutes. Four ml of complete DMEM with 10% FBS were added to the tube, mixed by inverting the tube several times, plated into a 96-well glass bottom plate at 20,000 cells/well, and placed in a 37°C CO2 incubator. HeLa cells transfected with vector alone or salmon sperm DNA (shown in the figures) were plated as a control. The medium was aspirated two days after transfection. Fura-2 was used as a ratiometric calcium-sensitive indicator as follows. […]\nImaging was performed using a Zeiss Axiovert 200 M microscope platform equipped with a flipping filter wheel for ratiometric imaging. […] The software later analyzed all images taken during each excitation period. Typically, ratiometric changes were measured in 10–20 cells in each image. An average of the fluorescence of the cells in each image was calculated and plotted against time in seconds."}, "[2]": {"system": "luciferase-PAR2M3 (leucine38 and glycine40 to alanines)", "test": "Gaussia luciferase release, luciferase-PAR2M3", "assay_type": "cell-based, human", "conditions": "cathepsin S 2 µM, 10 minutes, room temperature, triplicate", "excerpt": "Gaussia luciferase cDNA was cloned, without its termination codon, into pcDNA3.1(−) as an Xho I-EcoR I fragment. Human PAR2 cDNA and its mutants, M1, M2 and M3, were generated using PCR primers designed to start after the signal sequence and end with a termination codon: […] and […] . The PCR amplified cDNAs were cloned into EcoR I and Hind III sites C-terminal to Gaussia luciferase cDNA. The resulting plasmids were called pGLPAR2, pGLPAR2M1, pGLPAR2M2 and pGLPAR2M3.\nThe QuickChange site-directed mutagenesis procedure (Agilent Technologies, Santa Clara, CA) was used to generate PAR2 N-terminal mutants. PAR2M1, with a single amino acid change, was created by substituting the leucine^38 codon, CTT, with alanine, GCT, using the primers: PAR2M1F, […], and PAR2M1R, […]. […]\nThe plasmid DNAs pGLPAR2, pGLPAR2M1, pGLPAR2M2 and pGLPAR2M3 (10 µg of each) were transfected into 2×10^6 HeLa cells as described above and plated into 10 cm dishes. […] Cells were scraped in order to eliminate the use of trypsin, which could activate PARs, and allowed for the luminescence assay to be performed in a small volume. […] Luminescence assays were performed in triplicate on 50 µl of the supernatants according to the instructions of the manufacturer (New England Biolabs, Ipswich, MA)."}, "[3]": {"test": "Specific activity of recombinant cathepsin S", "assay_type": "biochemical", "conditions": "Z-VVR-AMC fluorimetric and Z-FR-pNA colorimetric assays", "experimental": "Recombinant human cathepsin S was produced as follows. The human cathepsin S proprotein coding region was isolated by PCR using the forward and reverse primers […] CCTG and […] and a template of plasmid DNA containing the entire coding sequence of human cathepsin S. The PCR product was cut with Nco I and Xho I, and cloned into the pTYB4 expression vector from New England Biolabs for expression in E.coli. Cells were grown in LB medium induced with 0.3 mM IPTG, harvested by centrifugation, resuspended in lysis buffer A (0.5 M NaCl, 0.05 M Tris, 5 mM EDTA, pH 8.0) and lysed in a French press. The lysate was centrifuged and the protein was found predominantly in inclusion bodies which were dissolved in buffer B (10 mM DTT and 8 M urea), and refolded in the presence of buffer B containing 0.7 M L-arginine, 0.01 M glutathione, 0.001 M glutathione disulfide, and 0.005 M EDTA as described. The refolded procathepsin S was concentrated by Minimate Concentrator (Pall Corporation) and washed three times with buffer A. It was activated after adjusting to pH 4.5 with acetic acid, adding DTT to 5 µM and incubating at 37°C for 3 hours. […] The specific activity of cathepsin S was assayed using Z-VVR-AMC in fluorimetric and Z-FR-pNA in colorimetric assays[22] and determined to be 10,000 mU/mg protein."}, "[4]": {"system": "luciferase-PAR2 and PAR2 mutants", "test": "Western blot for Gaussia luciferase in supernatants", "assay_type": "cell-based, human", "conditions": "luciferase-PAR2, PAR2M1, PAR2M2, PAR2M3; cathepsin S 2 µM", "experimental": "HeLa cells were transfected and treated with cathepsin S as described for the luciferase assay. After treatment with cathepsin S, cells were pelleted at 14,000 rpm for 3 minutes. Supernatants (100 µl) were collected and denatured with 1 µl of 10% SDS. Equal volumes of supernatants were prepared in loading buffer, heated at 90°C for 5 minutes, run on NuPAGE Novex Bis-Tris mini gels and transferred to nitrocellulose membranes using standard protocols. The blot was probed with a primary rabbit anti-Gaussia luciferase antibody. HRP-conjugated donkey anti-rabbit antibody was used to identify the relevant bands on the membrane."}}, "data": [{"molecule": "B1", "values": [{"measurement": "calcium response in cells without PAR2 (in words)", "setting": "[1]", "value": "Neither cathepsin S nor any of the peptides induced calcium responses"}, {"measurement": "receptor cleavage, luciferase luminescence (in words)", "setting": "[2]", "value": "did not cleave PAR2M2 or PAR2M3"}, {"measurement": "specific activity", "setting": "[3]", "value": "10,000 mU/mg protein"}, {"measurement": "receptor cleavage, anti-luciferase western blot (in words)", "setting": "[4]", "value": "confirmed the results of the luminescence assay"}]}]}
